Measurements taken from patent US20160297883A1, “G-PROTEIN COUPLED RECEPTOR AGONISTS AND METHODS” (Innovative Targeting Solutions, Inc., priority 2013, published 2016).

Target: T1, GLP1R (Homo sapiens, UniProt P43220, A316G/L260F)
T1 construct: host or cells: HuTARG cells (engineered HEK293), subclone L696 / L696.19
Assay: cAMP-responsive CD19 surface reporter assay in HuTARG-L696 GLP1R reporter cell line (FACS)
Type: cell-based
Description: HuTARG™ cells, which are HEK293 cells engineered to be capable of de novo antibody generation, were used to generate the reporter cell line. HuTARG™ cells have been stably transfected with expression cassettes for RAG1 and RAG-2 and Tdt. RAG-1 expression is inducible as the gene has been placed downstream of a Tet inducible promoter. HuTARG™ cells have also been stably transfected with a plasmid containing a LoxP site for subsequent insertion of V(D)J substrates.
HuTARG™ cells were modified to express the GLP1 receptor as well as express a reporter gene that was activated by cAMP. […]
Depleted cells were subsequently expanded and depleted an additional time using the same protocol except using a Miltenyi LD magnetic column. […] Single cell clones confirmed to have minimal CD19 expression in the absence of ligand were evaluated for induction of CD19 in the presence of 10 nM Exendin and the L696 subclone was selected. […]
The peptide-grafted antibody, ITS007-V107, was subsequently cloned and expressed as a single-domain VH-IgG antibody without CH1 or a light chain and it was confirmed that the peptide-grafted heavy chain was functional in this format as well (FIG. 12). […]
ITS007-V125 was cloned into a secretion vector, expressed and purified. […] The next day, binding and the percentage of cells expressing the surface marker were determined by FACS.

T1 sequence (P43220 24-463 L260F/A316G): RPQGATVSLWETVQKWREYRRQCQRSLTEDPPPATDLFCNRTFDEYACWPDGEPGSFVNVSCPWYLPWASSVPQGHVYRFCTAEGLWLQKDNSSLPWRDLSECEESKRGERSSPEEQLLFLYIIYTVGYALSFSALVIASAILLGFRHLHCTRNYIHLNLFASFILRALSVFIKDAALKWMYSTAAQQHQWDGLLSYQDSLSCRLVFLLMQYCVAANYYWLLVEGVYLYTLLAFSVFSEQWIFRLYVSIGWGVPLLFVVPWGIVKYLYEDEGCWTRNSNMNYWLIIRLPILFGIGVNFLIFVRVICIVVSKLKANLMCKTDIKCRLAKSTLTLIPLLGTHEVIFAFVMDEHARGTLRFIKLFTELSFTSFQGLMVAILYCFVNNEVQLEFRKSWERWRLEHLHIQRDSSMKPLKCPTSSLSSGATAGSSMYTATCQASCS

For Exendin-4 [reference compound], the “induction of CD19 expression” value (10 nM, 24 hours, L696 cell line) was “CD19 expression is specifically induced” and the “percentage of cells showing CD19 expression” value (50 nM, 48 hours incubation with reporter line) was “approximately 8%”.
